Results reported in article PMC5595146 (Metallomics : integrated biometal science, 2017).
Numbering of substitutions follows the chain as printed. Numbers in names are those of the source.

T1: S. pombe Php4 (WT), 6xHis-tagged (S. pombe, UniProt O14318 1-295)
T1 sequence (looked up): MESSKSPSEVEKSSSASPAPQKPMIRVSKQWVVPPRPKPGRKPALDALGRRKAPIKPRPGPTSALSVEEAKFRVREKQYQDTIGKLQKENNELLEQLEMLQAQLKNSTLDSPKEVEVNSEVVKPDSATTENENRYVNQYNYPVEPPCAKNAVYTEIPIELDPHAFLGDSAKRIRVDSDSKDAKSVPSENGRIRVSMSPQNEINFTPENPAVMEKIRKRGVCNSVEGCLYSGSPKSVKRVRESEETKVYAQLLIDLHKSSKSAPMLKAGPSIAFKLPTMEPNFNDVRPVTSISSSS

B1: S. pombe Grx4 (WT) (natural protein, UniProt O74790 1-244, looked up)
chain: MSVEITFVEQFQEILQNGKEQIILLNFYAPWAAPCKQMNQVFDQFAKDTKNAVFLKIEAEKFSDIAESFDVNAVPLFVLIHGAKVLARISGANPQKLKAAIDEYIQPLISQISSTNASVETQVNSVQTTNTTSNTSKAPNGLDSELNERLSTLTNAHNVMLFLKGTPSEPACGFSRKLVGLLREQNVQYGFFNILADDSVRQGLKVFSDWPTFPQLYIKGEFVGGLDIVSEMIENGELQEMLPN
B2: S. pombe Grx4 (C172A) (natural protein, UniProt O74790 1-244, looked up)
chain: B1 chain with C172A
B3: S. cerevisiae Fra2^Δ1–35 (domain or fragment, UniProt P53082 36-120, looked up)
chain: MPVTEQGLRERIESAIPQVYHIIVTDLSYGCGQSFDIVVVSDFFQGKSKLMRSRAVNKAVKEELQEIHAFSCKCYTEEEWSKIVV

Columns and labels:
SEC = target: the molecule itself; test: SEC
[1] = target: T1, S. pombe Php4 (WT), 6xHis-tagged; test: SPR
S. pombe Grx4 (WT) = target: B1; test: CD-monitored titration

Kd [1] [µM]	koff [1] [s⁻¹]	kon [1] [M⁻¹ s⁻¹]	binding result (S. pombe Grx4 (WT))	Binder	binding result (SEC)
34.1	0.00219	64.3		B1	binds
897	0.00916	10.2		B2	
			binds	B3	
